± gives the standard deviation of the averaged measurements.
Test system: ATP
Experiment: switch fluorescence ratio, 500 uM ATP over buffer (Cy3 cluster intensity, sum of 5 cycles each) (fold (ratio)); higher = stronger signal-on switching upon ATP binding; sequences stand for … in TCGTCGGCAGCGTCAGATGTGTATAAGAGACAGTTTTTTTTTTTTTTTTTTTTTTTTT…TC
Conditions: aptamer strand: ATP DNA aptamer (quencher-CACCTGGGGGAGTATTGCGGAGGAAGG + anchor), 100 nM annealed; ATP concentration: 500 uM
In short: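 Cy3-labelled switching-strand clusters on a modified Illumina MiSeq flow-cell were annealed to 100 nM quencher-labelled ATP aptamer, imaged in selection buffer, then imaged after 15 min with 500 uM ATP at 22 °C. Five buffer/ATP cycles ran, with NaOH stripping and re-annealing between them. The fluorescence ratio is summed target-cycle over summed buffer-cycle Cy3 intensity per cluster, averaged per switch-domain sequence. Clusters outside 100-1000 RFU were excluded.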
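Further: ATP exposure 15 min at 22 °C before imaging.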

Compared with TATCTTCTAT, CAGGTCAGGG is lower in switch fluorescence ratio: 1.035 ± 0.0096 for the first, 0.998 ± 0.014 for the second.

TTTATGCTGT and ATAAGGTCTA are within error of each other in switch fluorescence ratio: 0.976 ± 0.02 for the first, 0.971 ± 0.015 for the second.

GGTACGATGG and CAGCTTAGGG are the same in switch fluorescence ratio: 1.01 ± 0.015 for the first, 1.01 ± 0.036 for the second.

First: TGGGTAGGAG
Second: TGACTTAGTG
The switch fluorescence ratio of the first is lower: 0.987 ± 0.025 for the first, 1.03 ± 0.016 for the second.

Compared with AGTCTGGGTA, GCTACCCATC is higher in switch fluorescence ratio: 0.965 ± 0.016 for the first, 1.1 ± 0.05 for the second.

GCTGAATTTG and TCTAAATCG are within error of each other in switch fluorescence ratio: 0.989 ± 0.058 for the first, 1.04 ± 0.055 for the second.

CGTTTACTCT and AATCGTGTAG are within error of each other in switch fluorescence ratio: 1.055 ± 0.0043 for the first, 1.04 ± 0.025 for the second.

TTGTTTTATA and TTTTCACAAT are within error of each other in switch fluorescence ratio: 0.9733 ± 0.0064 for the first, 1.17 ± 0.21 for the second.

CGGGGGGTCA and CTATTTAGAT are within error of each other in switch fluorescence ratio: 1.01 ± 0.018 for the first, 0.984 ± 0.011 for the second.

First: GATGAAATGG
Second: CTCTCGACAC
The switch fluorescence ratio of the first is lower: 1.02 ± 0.013 for the first, 1.69 ± 0.078 for the second.

GACTGGATAG and ATTTAGGGCA are within error of each other in switch fluorescence ratio: 0.983 ± 0.022 for the first, 1.02 ± 0.051 for the second.

Compared with ACGAAGGGGT, AAGGCTGCAG is lower in switch fluorescence ratio: 1.03 ± 0.021 for the first, 0.92 ± 0.05 for the second.

TGTTGCAATT and TGGAAATAGG are within error of each other in switch fluorescence ratio: 1.01 ± 0.052 for the first, 0.981 ± 0.039 for the second.

CAAGTAGTGG and TTTTTGGCAA are within error of each other in switch fluorescence ratio: 1.03 ± 0.011 for the first, 2.35 ± 2.2 for the second.

AAGTAGATCC and TGTGTAAGGG are within error of each other in switch fluorescence ratio: 1.04 ± 0.044 for the first, 1.02 ± 0.029 for the second.

TTATACATT and TTAATAGTTA are within error of each other in switch fluorescence ratio: 1.02 ± 0.075 for the first, 0.992 ± 0.028 for the second.

CGTTTAGCGT and CGGTTTTTGT are within error of each other in switch fluorescence ratio: 1 ± 0.0018 for the first, 0.9992 ± 0.008 for the second.

CGGGGGGCAT and TATTATGTAT are within error of each other in switch fluorescence ratio: 0.994 ± 0.022 for the first, 0.982 ± 0.031 for the second.

Compared with GTTGACGGTG, AACGGACGGC is higher in switch fluorescence ratio: 0.982 ± 0.039 for the first, 1.48 ± 0.098 for the second.

GATGGCGGAG and AGGGTTTTTG are within error of each other in switch fluorescence ratio: 1.03 ± 0.042 for the first, 0.994 ± 0.016 for the second.

AAAGTCAAGG and TCAAGGGTTC are within error of each other in switch fluorescence ratio: 0.9933 ± 0.0029 for the first, 1.03 ± 0.064 for the second.

ACGCAGGTAT and ATTTGGGAAG are within error of each other in switch fluorescence ratio: 1.04 ± 0.061 for the first, 1.01 ± 0.021 for the second.

AAGTTCTATA and GGTTGGATCG are within error of each other in switch fluorescence ratio: 1.01 ± 0.043 for the first, 0.9987 ± 0.0047 for the second.

GTTGGGACGA and CGGAGACCGT are the same in switch fluorescence ratio: 1 ± 0.015 for the first, 1 ± 0.022 for the second.

AGAGGCTTAA and CGCTGTGATG are the same in switch fluorescence ratio: 1.01 ± 0.011 for the first, 1.013 ± 0.0053 for the second.

Compared with AAAAACACCG, TTAATAGGCC is lower in switch fluorescence ratio: 1.09 ± 0.078 for the first, 0.974 ± 0.036 for the second.

Compared with TACGTTGACC, CATGCTGGGT is lower in switch fluorescence ratio: 1.26 ± 0.016 for the first, 1.0358 ± 0.001 for the second.

Compared with TATGTACCTT, CATAAGGTTG is lower in switch fluorescence ratio: 1.179 ± 0.0091 for the first, 0.991 ± 0.017 for the second.

First: GGTATTCGGC
Second: TTTTATCGGG
The switch fluorescence ratio of the first is higher: 1.01 ± 0.017 for the first, 0.971 ± 0.016 for the second.

TTTGTGGGA and TTCTCTAGGG are within error of each other in switch fluorescence ratio: 0.997 ± 0.021 for the first, 0.99 ± 0.0049 for the second.

First: TGGTTTTAGC
Second: GTTTTGCCTG
The switch fluorescence ratio of the first is lower: 0.9886 ± 0.0028 for the first, 0.998 ± 0.0045 for the second.

CGTAGTAGGA and AATCATATTA are within error of each other in switch fluorescence ratio: 1.04 ± 0.084 for the first, 1.01 ± 0.049 for the second.

CAGGTCAGGT and TATTTCCCGT are within error of each other in switch fluorescence ratio: 1.01 ± 0.045 for the first, 1.06 ± 0.065 for the second.

TGTCAGGGCA and TAGTGGGAAT are within error of each other in switch fluorescence ratio: 1.02 ± 0.064 for the first, 0.968 ± 0.032 for the second.

GGGTTATAGG and TATGTATAGG are within error of each other in switch fluorescence ratio: 0.978 ± 0.025 for the first, 1.03 ± 0.049 for the second.

ATTGTGAGAC and CGTGTCACTT are within error of each other in switch fluorescence ratio: 0.986 ± 0.01 for the first, 1.01 ± 0.023 for the second.

GAAATTATTA and TTTCGCCATT are within error of each other in switch fluorescence ratio: 0.9919 ± 0.0075 for the first, 1.3 ± 0.46 for the second.

TTGAGGTGCA and TTTGTGGAGT are within error of each other in switch fluorescence ratio: 0.992 ± 0.025 for the first, 1 ± 0.021 for the second.

CATCAGGCGG and GGGGGAGGAG are within error of each other in switch fluorescence ratio: 1.02 ± 0.015 for the first, 0.996 ± 0.013 for the second.

Compared with ATTATCCGCT, GTTTAATCTT is lower in switch fluorescence ratio: 1.15 ± 0.014 for the first, 0.9896 ± 0.0031 for the second.

First: TCATGCGTAA
Second: AGGGAAATTT
The switch fluorescence ratio of the first is higher: 2.03 ± 0.069 for the first, 0.99 ± 0.014 for the second.

TCAGACAGAT and GGGTTGGCTG are within error of each other in switch fluorescence ratio: 1.02 ± 0.035 for the first, 0.989 ± 0.048 for the second.

GCTTGTTTGG and GGGTTTTTAG are within error of each other in switch fluorescence ratio: 0.961 ± 0.013 for the first, 0.994 ± 0.033 for the second.

GGGCTATGTA and ACTGGGGGGG are within error of each other in switch fluorescence ratio: 0.993 ± 0.0095 for the first, 0.995 ± 0.03 for the second.

TGTAGTACCG and GGGCCTGGAG are within error of each other in switch fluorescence ratio: 1.021 ± 0.0056 for the first, 1.012 ± 0.0086 for the second.

Compared with TGTGGGTTTG, ATCCCAGGGT is higher in switch fluorescence ratio: 0.958 ± 0.012 for the first, 1.89 ± 0.076 for the second.

ATGATTACGC and CGCGAGGCGT are within error of each other in switch fluorescence ratio: 1.06 ± 0.015 for the first, 1.07 ± 0.12 for the second.

Compared with TGGCAAAATG, ACCAGGATGC is higher in switch fluorescence ratio: 0.9915 ± 0.0088 for the first, 1.225 ± 0.0042 for the second.

Going from TATAAAAGAC to AGCTGGGGTA, the switch fluorescence ratio falls from 1.018 ± 0.01 to 0.951 ± 0.029.

AGGTTGTGTC and TGGGTCCGTG are within error of each other in switch fluorescence ratio: 0.979 ± 0.047 for the first, 0.963 ± 0.033 for the second.

TGGGATTCCT and ATGCTAGGGT are within error of each other in switch fluorescence ratio: 1.03 ± 0.073 for the first, 0.9905 ± 0.0055 for the second.

TATTGTATTC and GGGGCCAAAA are within error of each other in switch fluorescence ratio: 1 ± 0.013 for the first, 0.947 ± 0.11 for the second.

GACGTTAAAT and TTAGCAGCGT are within error of each other in switch fluorescence ratio: 1.01 ± 0.034 for the first, 1 ± 0.019 for the second.

Compared with GTGATTACTG, ATAGTTAGGT is higher in switch fluorescence ratio: 0.97 ± 0.011 for the first, 1.03 ± 0.029 for the second.

First: TACTTGAATT
Second: TCGTGTATCT
The switch fluorescence ratio of the first is higher: 1.02 ± 0.018 for the first, 0.946 ± 0.039 for the second.

GTATTTTGCT and ATTAGGGTAA are within error of each other in switch fluorescence ratio: 0.979 ± 0.031 for the first, 1.02 ± 0.026 for the second.

AGGGGAATAG and TTGTTGTGTT are the same in switch fluorescence ratio: 1.01 ± 0.016 for the first, 1.005 ± 0.0098 for the second.

Going from GTTTTCACTC to ATCGAATCCT, the switch fluorescence ratio rises from 1.0086 ± 0.00085 to 1.09 ± 0.012.

TTTGGCATGC and GGGGGCCGTT are within error of each other in switch fluorescence ratio: 1.11 ± 0.14 for the first, 0.977 ± 0.058 for the second.

GCGGGGGCGC and ATCGTGTGGT are within error of each other in switch fluorescence ratio: 0.985 ± 0.016 for the first, 0.9829 ± 0.0092 for the second.

AAGAAGGGCA and GAGTATTTAG are within error of each other in switch fluorescence ratio: 1 ± 0.055 for the first, 0.9801 ± 0.0093 for the second.

Going from TAGGGGATGC to GCTTATATTT, the switch fluorescence ratio rises from 1 ± 0.015 to 1.045 ± 0.0055.

TAGTAGGGGA and CGGGAATCGT are within error of each other in switch fluorescence ratio: 1.01 ± 0.039 for the first, 1 ± 0.05 for the second.

CATGGGGGTT and TTGGTAAGCG are within error of each other in switch fluorescence ratio: 0.991 ± 0.025 for the first, 1.02 ± 0.051 for the second.

TGCTTGCCTT and TTGGAGGAAC are within error of each other in switch fluorescence ratio: 0.9886 ± 0.0096 for the first, 1.07 ± 0.12 for the second.

First: TTTTATAGGG
Second: GCCTCAGGGT
The switch fluorescence ratio of the first is lower: 0.948 ± 0.027 for the first, 1.08 ± 0.02 for the second.

CCCTAGTGTG and GGGAAAAATA are within error of each other in switch fluorescence ratio: 2.97 ± 2.6 for the first, 1.24 ± 0.51 for the second.

AAGGGTATGT and TCAGTTTACT are within error of each other in switch fluorescence ratio: 0.981 ± 0.029 for the first, 0.998 ± 0.025 for the second.

ATTGGCACT and ATGAATTTTA are within error of each other in switch fluorescence ratio: 1.03 ± 0.018 for the first, 1 ± 0.031 for the second.

GTTAGGCCAG and TGGACTCGGA are within error of each other in switch fluorescence ratio: 0.986 ± 0.041 for the first, 1.03 ± 0.071 for the second.

CGATGGGCCT and GGAAATGAAT are within error of each other in switch fluorescence ratio: 1.01 ± 0.024 for the first, 1.02 ± 0.029 for the second.

TTGCGGGGG and TTTTGCTTCT are within error of each other in switch fluorescence ratio: 1.01 ± 0.017 for the first, 1.03 ± 0.02 for the second.

First: GGTTATGGTG
Second: AGATGGCGCT
The switch fluorescence ratio of the first is higher: 1.02 ± 0.02 for the first, 0.967 ± 0.029 for the second.

ATTGGCGGTT and ATTTGTCGGC are within error of each other in switch fluorescence ratio: 1.09 ± 0.1 for the first, 1.05 ± 0.051 for the second.

TGCGTATATT and GGCTGAGGCG are within error of each other in switch fluorescence ratio: 0.98 ± 0.017 for the first, 0.965 ± 0.024 for the second.

First: CCAGTGTAGA
Second: TTTGTGTTCT
The switch fluorescence ratio of the first is higher: 1.01 ± 0.0052 for the first, 0.9786 ± 0.0048 for the second.

ATAAGGTTGT and ATTTTCCTTT are within error of each other in switch fluorescence ratio: 0.977 ± 0.025 for the first, 1.02 ± 0.039 for the second.

CGATATGATG and TAAGCAGTTA are within error of each other in switch fluorescence ratio: 1.01 ± 0.062 for the first, 1.08 ± 0.12 for the second.

TATGAGGGG gave a switch fluorescence ratio of 0.999 ± 0.027.

From the supplement of paper PMC10126150
